Data on twelve substances can be found in patent US6545131.

The subject of data set [1] is Mu-EHSSKLQ-AMC (Glu-His-Ser-Ser-Lys-Leu-Gln; SEQ ID NO:10).
For data set [2], the system named is Mu-HSSKLQ-AMC (His-Ser-Ser-Lys-Leu-Gln; SEQ ID NO:7).
The test system of data set [3] is Mu-SKLQ-AMC (Ser-Lys-Leu-Gln; SEQ ID NO:1).
Data set [4] has as its system Mu-ATKSKQH-AMC (Ala-Thr-Lys-Ser-Lys-Gln-His; SEQ ID NO:13).
In data set [5] the test system is Mu-ENKISYQ-AMC (Glu-Asn-Lys-Ile-Ser-Tyr-Gln; SEQ ID NO:12).
Data set [6] has as its system Mu-QNKISYQ-AMC (Gln-Asn-Lys-Ile-Ser-Tyr-Gln; SEQ ID NO:11).
Data set [7] has as its system Mu-ATKSKQH-AMC (Ala-Thr-Lys-Ser-Lys-Gln-His; SEQ ID NO:13). As to the kind of experiment: fluorogenic AMC-release kinetics, Lineweaver-Burke plot.
Data set [8] has as its system Mu-EHSSKLQ-AMC (Glu-His-Ser-Ser-Lys-Leu-Gln; SEQ ID NO:10). The data set is described as above.
The subject of data set [9] is Mu-HSSKLQ-AMC (His-Ser-Ser-Lys-Leu-Gln; SEQ ID NO:7). The description is as above.
Data set [10] concerns Mu-SKLQ-AMC (Ser-Lys-Leu-Gln; SEQ ID NO:1). The description is as above.

plasmin, sequence (P00747 20-580): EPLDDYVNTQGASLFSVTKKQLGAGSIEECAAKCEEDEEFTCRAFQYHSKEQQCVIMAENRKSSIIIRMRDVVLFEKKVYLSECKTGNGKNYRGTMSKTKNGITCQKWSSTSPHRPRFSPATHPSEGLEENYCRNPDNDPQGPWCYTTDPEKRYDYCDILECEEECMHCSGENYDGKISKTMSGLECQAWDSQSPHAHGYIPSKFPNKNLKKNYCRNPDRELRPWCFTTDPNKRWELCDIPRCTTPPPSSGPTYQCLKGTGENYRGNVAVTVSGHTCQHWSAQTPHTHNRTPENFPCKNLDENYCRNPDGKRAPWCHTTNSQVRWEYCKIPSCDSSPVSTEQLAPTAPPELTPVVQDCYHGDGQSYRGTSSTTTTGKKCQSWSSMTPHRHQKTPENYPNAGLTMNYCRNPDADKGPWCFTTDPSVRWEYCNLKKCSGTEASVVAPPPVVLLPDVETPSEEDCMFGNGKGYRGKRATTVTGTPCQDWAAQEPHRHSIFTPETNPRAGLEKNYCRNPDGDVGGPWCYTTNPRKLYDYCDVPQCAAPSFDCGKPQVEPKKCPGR
plasmin, sequence (P00747 581-810): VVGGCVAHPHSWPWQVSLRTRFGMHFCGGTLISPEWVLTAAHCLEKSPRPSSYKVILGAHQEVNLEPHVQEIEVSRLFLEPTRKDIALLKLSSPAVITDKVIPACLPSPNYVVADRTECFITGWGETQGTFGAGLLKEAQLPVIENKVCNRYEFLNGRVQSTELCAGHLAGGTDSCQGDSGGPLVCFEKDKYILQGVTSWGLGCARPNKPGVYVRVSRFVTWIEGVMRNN
tissue plasminogen activator (TPA), sequence (P00750 36-562): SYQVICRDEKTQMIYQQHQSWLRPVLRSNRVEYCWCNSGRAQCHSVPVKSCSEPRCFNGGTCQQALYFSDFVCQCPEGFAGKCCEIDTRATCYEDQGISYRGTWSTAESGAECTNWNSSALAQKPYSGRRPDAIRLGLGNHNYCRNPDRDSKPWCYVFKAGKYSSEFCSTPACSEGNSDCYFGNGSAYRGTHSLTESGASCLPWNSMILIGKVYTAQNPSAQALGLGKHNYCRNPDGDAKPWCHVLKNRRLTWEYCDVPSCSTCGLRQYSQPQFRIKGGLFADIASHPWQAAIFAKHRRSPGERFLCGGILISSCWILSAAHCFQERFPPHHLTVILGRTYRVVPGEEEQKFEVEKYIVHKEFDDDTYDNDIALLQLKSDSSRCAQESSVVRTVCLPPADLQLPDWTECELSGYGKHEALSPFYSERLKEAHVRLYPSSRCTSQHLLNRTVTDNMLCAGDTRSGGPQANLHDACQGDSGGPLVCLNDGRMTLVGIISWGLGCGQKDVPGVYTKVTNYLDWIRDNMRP

Regarding Cathepsin B, the peptide cleavage rate (AMC release) (pmol/min/200 pmol protease) in data set [1] was found to be 4.3; in data set [2], 17.3; with Mu-KLQ-AMC it was 87; in the data set on Mu-LQ-AMC it was 190; in [3], 31.2.

For Cathepsin C, the peptide cleavage rate (AMC release) (pmol/min/200 pmol protease) (in data set [1]; in [2]; in the data set with Mu-KLQ-AMC; in the data set with Mu-LQ-AMC; in data set [3]) was less than 0.1 throughout.

For Cathepsin D, the peptide cleavage rate (AMC release) (pmol/min/200 pmol protease) in data set [1] amounted to 2.2; in [2], 3.8; in the data set on Mu-LQ-AMC, 20; in data set [3] it was 6.4.

With chymotrypsin, the substrate cleavage rate (AMC release) (pmol/min/200 pmol protease) in [4] was 38.8; in data set [1], less than 0.1; in [5] it was 3.6; in data set [6], 9.

On to elastase, for which the substrate cleavage rate (AMC release) (pmol/min/200 pmol protease) in [4] was less than 0.1; in [1], less than 0.1; in data set [5], 2.6; in [6] it was 9.

As for human kallikrein, hK1, the substrate cleavage rate (AMC release) (pmol/min/200 pmol protease) in data set [4], in data set [1] and in data set [5] was less than 0.1 throughout.

On to plasmin, for which the substrate cleavage rate (AMC release) (pmol/min/200 pmol protease) is less than 0.1 in data set [4], less than 0.1 in data set [1], 0.6 in data set [5] and less than 0.1 in data set [6].

With porcine liver esterase, the peptide cleavage rate (AMC release) (pmol/min/200 pmol protease) (in [1]; in data set [2]; in the data set with Mu-KLQ-AMC; in the data set on Mu-LQ-AMC; in [3]) was less than 0.1 in each case.

Broadly, the Km is the substrate concentration at which the rate is half of its maximum. For prostate specific antigen (PSA), the Kcat came out at 0.0091 s⁻¹ in [4], 0.02 s⁻¹ in data set [1], 0.011 s⁻¹ in data set [2] and 0.02 s⁻¹ in data set [3]. For the same substance, the Kcat/Km in [4] is 6.9 s^-1M^-1; in data set [1], 10.6 s^-1M^-1; in [2], 23.6 s^-1M^-1; in data set [3], 24.6 s^-1M^-1. For the same substance, the substrate cleavage rate (AMC release) (pmol/min/200 pmol protease) in [4] was 16; in data set [1], 31.6; in [5] it was 14.4; in data set [6] it was 16.8. Moreover, the peptide cleavage rate (AMC release) (pmol/min/200 pmol protease) in data set [1] was 31.6; in data set [2], 62.7; in the data set on Mu-KLQ-AMC, 0.4; in the data set on Mu-LQ-AMC, less than 0.1; in [3] it was 29.6. For the same substance, the Km in data set [7] was 310 µM; in data set [8], 1160 µM; in data set [9], 470 µM; in data set [10], 813 µM.

Regarding thrombin, the substrate cleavage rate (AMC release) (pmol/min/200 pmol protease) in data set [4] is 0.2; in [1], less than 0.1; in [5], 0.3; in data set [6] it was 0.4.

In the case of tissue plasminogen activator (TPA), the substrate cleavage rate (AMC release) (pmol/min/200 pmol protease) in [4] was less than 0.1; in data set [1], less than 0.1; in [5], 0.04; in [6], 0.4.

As for urokinase, the substrate cleavage rate (AMC release) (pmol/min/200 pmol protease) in data set [4], in data set [1] and in data set [5] was less than 0.1 throughout.
